The values below come from paper PMC4412574, “On-Off Kinetics of Engagement of FNI Modules of Soluble Fibronectin by β-Strand Addition” (PLoS ONE, 2015).

As usually defined, the Kd is the equilibrium constant for the complex coming apart. Usually IC50 stands for the concentration that gives 50% inhibition. Low values mean greater potency, high ones weaker potency.

In assay [1] the target is T1, plasma FN (Homo sapiens, UniProt P02751). Nature of the assay: Size exclusion chromatography of FN-AFpolypeptide complex. To be noted: from half-life lower limit by Eq 4, read-out: k off estimated from size exclusion chromatography. Format: binding. How it is done:
(§1) Fractions of 0.5 ml were collected and assayed. FN was monitored by absorbance at 280 nm by NanoDrop 2000 UV-Vis Spectrophotometer (Thermo Scientific, Wilmington, DE) and AFpolypeptide by Tecan Genios Pro microplate reader with excitation 485 nm and emission 535 nm. FN, AFFUD or AFBbk32 was analyzed by itself as a control. The k off of FN-AFFUD complex was estimated by estimating the lower limit of half-life (t1/2) of complex decay and the following equation: t1/2 = 0.693/koff (4)
(§2) To corroborate the estimates from stopped-flow fluorimetry of k off for the FN-FUD or FN-Bbk32 interaction by a second method, size exclusion chromatography of the FN-AFFUD or FN-AFBbk32 complex was carried out. […] Elution patterns of FN alone (Fig 6C), AFFUD alone (Fig 6D), and AFBbk32 alone (Fig 6E) are also shown. FN eluted at 20 min. We estimate, therefore, that the half-life of FN-AFFUD is longer than 20 min and, according to Eq, the k off of FN-AFFUD is < 10^-3 s^-1, which is more than 20-fold slower than that estimated for FN-AFBbk32 by Eq or the displacement experiment (Table 1).
Fig 6 FPLC size exclusion of FN-AFFUD or FN-AFBbk32 complex. […] Absorbance at 280nm (A^280nm), and emission at 535 nm upon excitation at 485 nm (E^535nm) were measured to estimate, respectively, concentration of FN and AFpolypeptide and expressed relative to the values in starting material. […]

Assay [2] has as its target T2, FN70K fragment (Homo sapiens, UniProt P02751).
T2 construct: the FN70K domain comprising the N-terminal ^1-9FNI and ^1-2FNII modules of FN; from tissue; host or cells: proteolytic fragment of FN
The assay is described as follows: Size exclusion chromatography of FN70K-AFpolypeptide complex. In kind it is binding. The note with it: data not shown, read-out: k off estimated from size exclusion chromatography. How it is done: as §1, §2

Assay [3] concerns the target T1, plasma FN. The assay is described as follows: Stopped-flow fluorimetry (crossed polarizers), direct binding of AFpolypeptide to a series of FN concentrations. To be noted: as restated in text from Table 1; read-out: k on of FN-AFpolypeptide interaction. How it is done: (§3) Measurements were in TBS with 100mM NaCl at 25°C. Reactants separated in two syringes were injected by SFA-20 rapid kinetics accessory (Hi-Tech Scientific, Salisbury, England) into the cuvette for mixing in QuantaMaster 300 spectrofluorimeter (Photon Technology International, Edison, New Jersey) with excitation and emission polarizers of 90 degree. The excitation and emission wavelength were 485nm and 535 nm respectively. Upon mixing the fluorescence intensity were recorded at a rate of 10 points/sec during the reaction procedure. In the absence of FN or FN70K, there was no change in fluorescence polarization for any of the AFpolypeptides.
In direct binding assays, AFFUD, AFHADD, AFFRD or AFBbk32, 10 nM, was mixed with a series of FN concentrations or with FN70K at 100 nM. AFΔBbk32 was studied only with FN at 100 nM. For each experiment, four or five curves were generated, and k obs was calculated by F(t) = Fmin+(Fmax-Fmin)e^-kobst (1) where F(t) is fluorescence intensity at time point t. Fmax or Fmin is maximum or minimum fluorescence intensity, and the rate constant k is k obs. […]
Stopped-flow fluorimetry with crossed-polarizers was performed to study on-off kinetics of the FN-AFpolypeptide interactions. Upon mixing 10 nM AFFUD, AFHADD, AFFRD or AFBbk32 with increasing concentration (100, 200, 300, 400, or 500 nM) of FN, decreases of fluorescence intensity were observed (Fig 3). […]

For assay [4], the target named is T1, plasma FN. Nature of the assay: Stopped-flow displacement of AFpolypeptide from FN complex by unlabeled polypeptide (or size exclusion chromatography). The note with it: 1 μM unlabeled polypeptide, over 180 sec (Fig 3E-H). In kind it is binding. Here is the method: as §3
In displacement assays, unlabeled FUD, HADD, FRD, Bbk32, or ΔBbk32 in 10-fold molar excess of FN or FN70K was mixed with complex of AFpolypeptide and FN or FN70K. For ΔBbk32, only displacement from FN was measured. The k off value is calculated by Ft = Fmin+Fmax-Fmin1-e^-kofft (3) in which k off is the dissociation rate constant. The k on of FN70K-AFpolypeptide was determined by Eq based on [FN70K] and the k off of FN70K-AFpolypeptide obtained from Eq.
Fractions of 0.5 ml were collected and assayed. FN was monitored by absorbance at 280 nm by NanoDrop 2000 UV-Vis Spectrophotometer (Thermo Scientific, Wilmington, DE) and AFpolypeptide by Tecan Genios Pro microplate reader with excitation 485 nm and emission 535 nm. […]

Assay [5] concerns the target FN70K fragment (N-terminal 70-kDa region of fibronectin). Nature of the assay: fluorescence polarisation; stopped-flow with crossed polarizers, direct binding at a single concentration: 10 nM AFpolypeptide mixed with 100 nM FN70K; kon from kobs and the koff of displacement (koff taken as 0 for FUD and HADD); TBS with 100 mM NaCl, 25°C. For orientation: In fluorescence polarisation assays a small probe gives low polarisation when free and higher when bound to something large.

The target is the same in assay [6]. The assay is described as follows: fluorescence polarisation; stopped-flow with crossed polarizers, displacement: 10 nM AFpolypeptide pre-mixed 30 min with 100 nM FN or FN70K, then 1 uM of the same unlabeled polypeptide; single exponential fit; TBS with 100 mM NaCl, 25°C.
The target in assay [7] is plasma fibronectin (FN) (UniProt P02751). The assay is described as above.
For assay [8], the target named is FN70K fragment (N-terminal 70-kDa region of fibronectin). The assay is described as follows: fluorescence polarisation; KD calculated as koff/kon from the stopped-flow on-rate and the off-rate of the stopped-flow displacement.
Assay [9] deals with plasma fibronectin (FN) (UniProt P02751). Described as above.
For assay [10] the target is unchanged. The assay is described as follows: fluorescence polarisation; stopped-flow with crossed polarizers, direct binding: 10 nM AFpolypeptide mixed with 100, 200, 300, 400 or 500 nM FN; kobs against [FN], kon from the slope, koff from the y-intercept; TBS with 100 mM NaCl, 25°C.
Assay [11] shares this target. Nature of the assay: fluorescence polarisation; stopped-flow with crossed polarizers, displacement: 10 nM AFpolypeptide pre-mixed 30 min with 100 nM FN or FN70K, then 1 uM of the same unlabeled polypeptide; single exponential fit; TBS with 100 mM NaCl, 25°C. The source holds these as a separate data set.
For assay [12], the target named is FN70K fragment (N-terminal 70-kDa region of fibronectin). Nature of the assay: SEC; data not shown: the same size exclusion experiment as for FN-AFFUD, with FN70K-AFFUD, FN-AFHADD or FN70K-AFHADD. On the technique in general: In gel filtration, larger molecules generally elute earlier.
The target of assay [13] is plasma fibronectin (FN) (UniProt P02751). Nature of the assay: SEC; 400 nM FN and 40 nM AFFUD or AFBbk32 mixed 30 min in TBS with 100 mM NaCl, Superose 6 10/300 at 0.5 ml/min; FN by A280, AFpolypeptide by fluorescence; koff from the lower limit of the half-life.
In assay [14] the target is FN70K fragment (N-terminal 70-kDa region of fibronectin). Nature of the assay: fluorescence polarisation + SEC; KD limit calculated as koff/kon from the stopped-flow on-rate and the upper limit of koff by chromatography.
The target of assay [15] is plasma fibronectin (FN) (UniProt P02751). The description is as above.
For assay [16] the target is unchanged. The assay is described as follows: SEC; data not shown: the same size exclusion experiment as for FN-AFFUD, with FN70K-AFFUD, FN-AFHADD or FN70K-AFHADD.
For assay [17] the target is unchanged. The assay is described as follows: ELISA; competitive: FN coated on 96-well plate (50 ul, 20 nM); 0.5 nM b-FUD or b-Bbk32 mixed with unlabeled FUD or Bbk32 at 1, 10, 100 or 1000 nM, 1 h; bound biotinylated polypeptide detected with enzyme-conjugated (strept)avidin. Background: ELISA stands for enzyme-linked immunosorbent assay.

Peptide text beside a SMILES is read from it. Where only a bound is given, the exact number is not on record here.

T1 sequence (P02751 32-609): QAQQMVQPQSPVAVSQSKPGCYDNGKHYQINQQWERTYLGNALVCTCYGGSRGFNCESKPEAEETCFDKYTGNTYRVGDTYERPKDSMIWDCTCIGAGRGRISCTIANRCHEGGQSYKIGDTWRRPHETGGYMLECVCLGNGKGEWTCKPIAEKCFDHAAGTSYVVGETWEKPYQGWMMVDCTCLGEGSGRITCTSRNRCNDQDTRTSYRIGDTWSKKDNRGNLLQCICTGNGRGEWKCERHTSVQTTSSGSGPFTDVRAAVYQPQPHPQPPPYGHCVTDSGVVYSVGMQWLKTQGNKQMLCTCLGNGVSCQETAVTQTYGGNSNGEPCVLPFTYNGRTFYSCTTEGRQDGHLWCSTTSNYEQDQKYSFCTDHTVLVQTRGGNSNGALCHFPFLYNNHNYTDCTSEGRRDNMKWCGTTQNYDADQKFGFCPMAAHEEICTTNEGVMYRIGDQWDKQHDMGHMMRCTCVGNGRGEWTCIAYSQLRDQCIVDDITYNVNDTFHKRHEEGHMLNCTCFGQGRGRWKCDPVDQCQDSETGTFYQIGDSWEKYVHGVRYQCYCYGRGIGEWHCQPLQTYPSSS
T2 sequence (P02751 32-609 limits assumed): as the sequence (P02751 32-609) above

With `C[C@H](N)C(=O)N[C@@H](Cc1ccccc1)C(=O)N[C@@H](Cc1c[nH]cn1)C(=O)N[C@@H](C)C(=O)N[C@@H](CC(=O)O)C(=O)N[C@@H](CC(=O)O)C(=O)O` [AFHADD] (H-AFHADD-OH), the koff in [1] and in [2] was under 0.001 s⁻¹ throughout. For the same compound, the kon in assay [3] was determined as 430000 M⁻¹ s⁻¹. The “reversal of fluorescence intensity decrease on displacement” value in assay [4] is recorded as “less than 10%”.

Regarding “AFBbk32 (Bbk32 labeled with Alexa 488 on the N-terminal cysteine) (domain or fragment)”, the kon was 2.4e+06 M⁻¹ s⁻¹ in assay [5] and 180000 M⁻¹ s⁻¹ in assay [10]. Moreover, the koff was 0.033 s⁻¹ in assay [6], 0.025 s⁻¹ in assay [7] and 0.036 to 0.041 s⁻¹ in assay [10]. The Kd was 14 nM in assay [8] and 140 nM in assay [9].

Take “AFFRD (FRD labeled with Alexa 488 on the N-terminal cysteine) (domain or fragment)”: the results for the kon in assay [5] and in assay [10] were 4.1e+06 M⁻¹ s⁻¹ and 290000 M⁻¹ s⁻¹, respectively. Besides, the koff in assay [6] was 0.013 s⁻¹; in assay [7], 0.021 s⁻¹; in assay [10], 0.027 to 0.039 s⁻¹; in assay [11], 0.02 s⁻¹. In addition, the results for the Kd in [8] and in [9] were 3.1 nM and 70 nM, respectively.

Turning to “AFFUD (FUD labeled with Alexa 488 on the N-terminal cysteine) (domain or fragment)”, the kon stood at 3.9e+06 M⁻¹ s⁻¹ in assay [5] and 390000 M⁻¹ s⁻¹ in assay [10]. In addition, the percent of the fluorescence intensity decrease reversed over 180 sec by 1 uM unlabeled polypeptide in [7] is under 10%. Besides, the koff in assay [12] and in [13] was under 0.001 s⁻¹ each time. This compound showed a half-life of the complex in assay [13] of over 20 min. For the same compound, the percent of AFFUD eluting with FN in [13] came to 100%. For the same compound, the Kd is under 0.26 nM in [14] and under 2.6 nM in assay [15].

As to “AFHADD (HADD labeled with Alexa 488 on the N-terminal cysteine) (domain or fragment)”, the kon in assay [5] is 9.7e+06 M⁻¹ s⁻¹; in [10] it was 430000 M⁻¹ s⁻¹. The compound further had a percent of the fluorescence intensity decrease reversed over 180 sec by 1 uM unlabeled polypeptide in [7] of under 10%. Moreover, the koff in assay [12] and in [16] was under 0.001 s⁻¹ in each case. Further, the values for the Kd in assay [14] and in [15] were under 0.1 nM and under 2.3 nM, respectively.

In assay [17], “Bbk32, unlabeled (version with the N-terminal cysteine) (domain or fragment)” yielded an IC50 of 30 nM and a percent of b-FUD binding to FN left at 1000 nM Bbk32 of over 60%.

On to “FUD, unlabeled (version with the N-terminal cysteine) (domain or fragment)”, for which the IC50 in assay [17] amounted to 10 nM.
